B1: TPR t1 (parent)
chain: GACCAAUCUGCCCUCAGAGCUCGAGAACAUCUUCGGAUGCAGAGGAGGCAGGCUUCGGUGGCGCGAUAGCGCCAACGUCCUCAACCUCCAAUGCAUCCCACCACAUGAUGAUGCCUGAAGAGCCUUGGUUUUUUG

In this data set the parent is B1. Description: polymerase ribozyme fitness, log enrichment relative to wild type (log ratio); higher = more active; in vitro selection for triplet polymerase activity. The procedure, abridged:
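Fitness measures genotype enrichment against wild-type enrichment on a logarithmic scale, with inverse-variance-weighted averaging of replicates. The logarithm is base 2, and genotypes were kept only with ≥10 input reads and ≥1 read per output in Illumina sequencing. The sequenced libraries came from one triplicate in vitro selection round, including frozen incubation at −7 °C, of PCR-built, transcribed mutant libraries of each subunit of a heterodimeric triplet polymerase ribozyme.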
A16U G69U G71U G117C: the “polymerase ribozyme fitness (log ratio)” value is -4.04.
Under A18U U87G G120A stands -1.48; under A18C G117C, -4.33.
To G19U A50U C124G belongs -2.97.
To A18C G93C belongs -3.24; to G19U U55G C70U, -3.42; to G17A C86G, -4.48.
Turning to A18U G57U A100C G120C, the “polymerase ribozyme fitness (log ratio)” value was -5.42.
To A18C A95U C124A belongs -0.947; to A18C G63C C88U C97G C102U C123U, -6.68.
To G19U C88A belongs -2.97.
Under G17C G63U stands -4.39; under A18U U78G U96G, -4.41; under A18U G42U, -2.23.
For the variant G19U C76A C85U C124G, the “polymerase ribozyme fitness (log ratio)” value was -3.5.
To A18U G42C A50U belongs -3.92; to G19U G69A U106C C114A G120C, -2.51; to A18G C70A A91C G113A, -2.9.
Take A18G G36A G61A U116C A118G: the “polymerase ribozyme fitness (log ratio)” value is -3.23.
To A18U A29U U54G U78C C89G C114G belongs -3.24; to G19U C73A C80U U112C C114A U126A, -1.24.
To A18U A26C C62U G120C U126G belongs -7.02.
To G17U C72U C89A belongs -3.71; to A18G C70U, -2.4; to A18G G39A C64A A90G G120C, -5.87.
Take A18U G36A A50G: the “polymerase ribozyme fitness (log ratio)” value is -3.46.
To G19U C53G belongs -2.76; to G17C A46G C124A, -1.43; to A18G G52C, -3.49.
Under G19U C53G U54A G61A C124A G128A stands -3.82; under G19U G45U A111C, -4.74; under G19U G110C, -5.06.
Under A18C U112C stands -0.328; under C20A A46U, -4.55; under G17U G69U A84C C124A, 1.63.
As for G19A U96A C114A G127U, the “polymerase ribozyme fitness (log ratio)” value was -3.48.
G17C G35A C123G G128U: the “polymerase ribozyme fitness (log ratio)” value is -4.31.
Under G17A C53A A90G A95U stands -3.77; under A18G C28A U112A, -4.92; under G17A A90C C101A C114G, -5.04.
Under G19A A29C U109A G120C stands -5.43.
Under G19A C73A A105U C114U U116G stands -5.41; under G19A G63A A111G, -1.39; under G17C U133G G135U, -3.94.
Take G17U U21G G47C C115A: the “polymerase ribozyme fitness (log ratio)” value is -1.81.
To G19C U55A C64U A66U C104U belongs -3.86.
Under A18C C53U A121U stands -0.907; under A18U C73G A100U G113A G128A, -5.47; under G17A G48C, -4.15.
To G17A A46C G63U A74U C89G C102U A105U belongs -7.26; to G19A C56G U106A G113C, -1.09.
On to G17C U21A G39A C72A U112C C115A, for which the “polymerase ribozyme fitness (log ratio)” value is -0.984.
Under A18U U59G G60A stands -4.56; under G17A G52C G60C U81C C115G, -3.56.
Under A18U C40G stands -4.04; under A18U U30A A37G A108U, -3.64; under G19C A41C C70G G120U, -6.52.
To A18C G47A A121U belongs -1.35; to A18U G69C C85A C89G, -6.03.
For the variant A18U A46G G52A A118U, the “polymerase ribozyme fitness (log ratio)” value is -2.9.
For A18G A74C C97A U106A, the “polymerase ribozyme fitness (log ratio)” value was -6.31.
G17C A41U U130A: the “polymerase ribozyme fitness (log ratio)” value was -4.18.
Under A18G U78C stands -2.98; under G17A A91C G93C G120C U131C, -1.37; under G17U C70A C88A A90G, -4.06.
On to G17A G61A C114G C124A, for which the “polymerase ribozyme fitness (log ratio)” value is -3.95.
To A18U C62A belongs -4.11; to G17U G63A U81A G110C, -6.98.
To G19U C123A belongs -2.59.
To G19C G42C C124G belongs -0.406; to G17A C70U, -3.03; to A18G G19A U96C C115A, -4.42.
Turning to G17C A50C U81A C114U G120U, the “polymerase ribozyme fitness (log ratio)” value is -5.67.
Under A18C G39U C101A stands -3.85; under G17U G61C, -3.76.
To A18U G36U U59C C97G belongs -4.79.
To G19C G93A C104U U112C belongs -0.693; to G19C C22U A46C C114U, -5.79.
In the case of G17U G42U G45A G69C U81G C86A C94U C99A A121C, the “polymerase ribozyme fitness (log ratio)” value is -6.32.
Under G17C A46G U55C stands -5.15; under G19A G60A C114A, -1.62; under G17A A43G, -3.39.
To A18G U130G belongs -4.25; to G17A G42U G57A G120C, -3.79.
To G17U G52C C72U belongs -2.43.
Regarding G19A U54C C73G C82G C114G, the “polymerase ribozyme fitness (log ratio)” value was -4.42.
As to A16U U92A A111C, the “polymerase ribozyme fitness (log ratio)” value was -4.66.
Under A18U G117C stands -4.12; under G17A G71U G122A, -4.15.
As to A18U G71A, the “polymerase ribozyme fitness (log ratio)” value was -2.85.
To G17A C79U U106A A111C belongs -4.21; to G17U C97U, -3.45.
Under G17A C53A C124G stands -0.146; under C20A A84G C86A G128U U130C, -3.64; under G19A G61C, -4.27.
Under G19A C101U stands -3.3.
On to A18C A37U G48A, for which the “polymerase ribozyme fitness (log ratio)” value was -3.12.
To A18U A24G C72U C73U belongs -4.35; to G17A C53U C89U C101A U109G, -6.85.
To A18U G69U belongs -0.112; to A18G U54A C88G A111C G113C U125A, -3.51.
Under G19C G57A G69U C85G stands -4.01; under G19A C62A C82A G93U U112A, -2.13; under G17U C20G G52A G113A A119G, -2.03.
On to G19U C101A, for which the “polymerase ribozyme fitness (log ratio)” value is -4.08.
To G19A G48U C53G G58U U59A belongs -3.69; to G19A C114A, -1.55.
Under G17C G47A A95U stands -5.58; under A18C C62U, -2.83.
To A18U A68G U81A C123U belongs -5.83; to G17A A43U C73G G120A, -3.38.
Regarding G17U C49U C124G G127C, the “polymerase ribozyme fitness (log ratio)” value is -0.942.
To G19U G48U C79A C85A G120C U130C belongs -5.41; to C20A A29U C62U A119U U129G, -4.53.
To G17A C49G A50G U106A belongs -3.86; to G17C A18U C40U C56G C70G A108G A111U, -7.19; to G17U G63U C73U, -4.41.
For G19A C53A C101U, the “polymerase ribozyme fitness (log ratio)” value is -2.73.
To G17A G39U G113C belongs -6.88; to A18U C40G A83U, -4.16; to A18C C124U, -1.22.
To A16U G52U G117A U130C U131G belongs -4.01; to A18U A50U C99G A100C A108U C124G, -8.04.
To A18C G60C belongs -2.9; to G17A C20U G57C G61A, -4.32; to A18G G19A, -1.4.
Consider G19C G45A U78C C82G U112C, for which the “polymerase ribozyme fitness (log ratio)” value is -1.42.
Under A16U G113A stands -3.61.
To A18U G42U G69A A100U C114A G128U belongs -7.14.
Under G19A C76U C124U stands -1.46; under A18G G48A G63A G77A U81C A121U U126G, -5.32; under G17U G19U G69U A84U G93A, -4.27.
Consider A18U G48C C49A, for which the “polymerase ribozyme fitness (log ratio)” value is -3.25.
To A18U C70U U112C belongs -1.2; to A18C A43G C114U U129C, -3.16; to C20A A29G G36U, -6.08.
To A16U U59G G69A U96C belongs -4.5; to G17A C80A, -5.66.
To G17A C80U belongs -3.53; to G19C A37U C124U, -1.48.
Take G17U A41C G61A C89A: the “polymerase ribozyme fitness (log ratio)” value was -4.06.
Under A18G G19C C53U A111U stands -4.72; under A18C A24G G58A U92C, -5.73.
To G17U G110C belongs -7.86; to A18C C56A C82A C94U U106C, -4.93; to A18C C82A A84U, -3.72.
Under G17A G60U C79A stands -5.25.
As to G19A A66U C101U, the “polymerase ribozyme fitness (log ratio)” value was -4.61.
To G17A U55G C123A belongs -2.36.
Under G17C U129A stands -5.13; under A18U C89A U133A, -2.21.
Regarding G17U G71A G135U, the “polymerase ribozyme fitness (log ratio)” value is -4.32.
Consider G19C C53A G93A C123U, for which the “polymerase ribozyme fitness (log ratio)” value is -2.59.
Under G19C G63A U87C stands -3.24.
Under G19A G63A stands -3.09; under A18U C49G A91G, -3.84.
To C20A A66G belongs -4.25.
Consider A18U G63A G110U, for which the “polymerase ribozyme fitness (log ratio)” value was -6.24.
Under A18C C114U stands -3.82.
Under A18G C62U A74C stands -5.71.
Under A18U G60U stands -1.19.
Turning to G19A C62A U78A U81A C101G G113U U130A, the “polymerase ribozyme fitness (log ratio)” value was -6.38.
To G19A C73U belongs -2.61.
Under A18C C56U U132A stands -2.9; under G17U C62G A83U C123G, -5.79; under A16U G110A, -2.07.
Under A18U A111G U129A stands -4.75.

For the origin of these results see the RNAGym collection of RNA variant scans (doi:10.1073/pnas.2313332121).
